# Results published in patent US20170096495A1 (Hoffmann-La Roche, published 2017).
# Changes are numbered by the printed parent chain. Read-outs that look alike come from different tables or passages of the source.
# B1: STEAP-1 TCB Molecule F: "2+1 IgG CrossFab, inverted" with charge modifications (VH/VL exchange in CD3 binder, charge modification in STEAP-1 binders) (bispecific antibody)
# heavy 1: EVQLVESGGGLVQPGGSLRLSCAVSGYSITSDYAWNWVRQAPGKGLEWVGYISNSGSTSYNPSLKSRFTISRDNSKNTLYLQMNSLRAEDTAVYYCARERNYDYDDYYYAMDYWGQGTLVTVSSASTKGPSVFPLAPSSKSTSGGTAALGCLVEDYFPEPVTVSWNSGALTSGVHTFPAVLQSSGLYSLSSVVTVPSSSLGTQTYICNVNHKPSNTKVDEKVEPKSCDKTHTCPPCPAPEAAGGPSVFLFPPKPKDTLMISRTPEVTCVVVDVSHEDPEVKFNWYVDGVEVHNAKTKPREEQYNSTYRVVSVLTVLHQDWLNGKEYKCKVSNKALGAPIEKTISKAKGQPREPQVCTLPPSRDELTKNQVSLSCAVKGFYPSDIAVEWESNGQPENNYKTTPPVLDSDGSFFLVSKLTVDKSRWQQGNVFSCSVMHEALHNHYTQKSLSLSP
# heavy 2: not shown
# light 1: DIQMTQSPSSLSASVGDRVTITCKSSQSLLYRSNQKNYLAWYQQKPGKAPKLLIYWASTRESGVPSRFSGSGSGTDFTLTISSLQPEDFATYYCQQYYNYPRTFGQGTKVEIKRTVAAPSVFIFPPSDRKLKSGTASVVCLLNNFYPREAKVQWKVDNALQSGNSQESVTEQDSKDSTYSLSSTLTLSKADYEKHKVYACEVTHQGLSSPVTKSFNRGEC
# light 2: EVQLLESGGGLVQPGGSLRLSCAASGFTFSTYAMNWVRQAPGKGLEWVSRIRSKYNNYATYYADSVKGRFTISRDDSKNTLYLQMNSLRAEDTAVYYCVRHGNFGNSYVSWFAYWGQGTLVTVSSASVAAPSVFIFPPSDEQLKSGTASVVCLLNNFYPREAKVQWKVDNALQSGNSQESVTEQDSKDSTYSLSSTLTLSKADYEKHKVYACEVTHQGLSSPVTKSFNRGEC
# B2: STEAP-1 TCB Molecule B: "2+1 IgG CrossFab, inverted" without charge modifications (VH/VL exchange in CD3 binder) (bispecific antibody)
# light: B1 light 2
# chain 1: B1 heavy 1 with N74T, E154K, E220K
# chain 2: not shown
# chain 3: not shown
# B3: STEAP-1 TCB Molecule E: "1+1 IgG CrossMab" with charge modifications (VH/VL exchange in CD3 binder, charge modification in STEAP-1 binder) (bispecific antibody)
# heavy 1: B1 heavy 1 with N74T
# heavy 2: not shown
# light 1: B1 light 1
# light 2: B1 light 2
# B4: STEAP-1 TCB Molecule A: "2+1 IgG CrossFab, inverted" with charge modifications (VH/VL exchange in CD3 binder, charge modification in STEAP-1 binders) (bispecific antibody)
# heavy 1: not shown
# heavy 2: B1 heavy 1 with N74T
# light 1: B1 light 1
# light 2: B1 light 2
# B5: STEAP-1 TCB Molecule C: "2+1 IgG CrossFab, inverted" with charge modifications (CH1/CL exchange in CD3 binder, charge modification in STEAP-1 binders) (bispecific antibody)
# light: B1 light 1
# heavy: B1 heavy 1 with N74T
# chain 1: not shown
# chain 2: QAVVTQEPSLTVSPGGTVTLTCGSSTGAVTTSNYANWVQEKPGQAFRGLIGGTNKRAPGTPARFSGSLLGGKAALTLSGAQPEDEAEYYCALWYSNLWVFGGGTKLTVLSSASTKGPSVFPLAPSSKSTSGGTAALGCLVKDYFPEPVTVSWNSGALTSGVHTFPAVLQSSGLYSLSSVVTVPSSSLGTQTYICNVNHKPSNTKVDKKVEPKSC
# Legend:
# [1] = molecular target: T1, human STEAP-1 (Six-transmembrane epithelial antigen of prostate 1) (human, UniProt Q9UHE8 1-339); experiment: cell-based or functional assay
# [2] = molecular target: T1, human STEAP-1 (Six-transmembrane …); experiment: cell-based or functional assay; remark: listed apart in the source
# [3] = molecular target: T1, human STEAP-1 (Six-transmembrane …); experiment: cell-based or functional assay; remark: listed apart in the source
# [4] = molecular target: T1, human STEAP-1 (Six-transmembrane …); experiment: cell-based or functional assay; remark: listed apart in the source
# [5] = molecular target: T1, human STEAP-1 (Six-transmembrane …); experiment: cell-based or functional assay; remark: listed apart in the source
# [6] = molecular target: T1, human STEAP-1 (Six-transmembrane …); experiment: cell-based or functional assay; remark: listed apart in the source
# human CD3 [7] = molecular target: T2, human CD3 (human, UniProt P07766 23-207); experiment: cell-based or functional assay
# [8] = molecular target: T1, human STEAP-1 (Six-transmembrane …); experiment: cell-based or functional assay; remark: listed apart in the source
# human CD3 [9] = molecular target: T2, human CD3; experiment: flow cytometry on Jurkat cells
# [10] = molecular target: T1, human STEAP-1 (Six-transmembrane …); experiment: flow cytometry on CHO-hSTEAP1 clone 2 cells, anti-human Fc secondary antibody
# Procedure: The binding of STEAP-1 TCB molecules was tested, using STEAP-1-expressing CHO-hSTEAP1, clone 2 cells (an epithelial cell line derived from hamster ovary, that was transfected to stably overexpress human STEAP-1) and CD3-expressing immortalized T lymphocyte cells (Jurkat, DSMZ #ACC 282).
# Briefly, adherent CHO-hSTEAP1 cells were harvested, using Cell Dissociation Buffer (Gibco, #13151014) counted, checked for viability and re-suspended at 2×10⁶ cells/ml in FACS buffer (100 μl PBS 0.1% BSA). Jurkat suspension cells were also harvested, counted and checked for viability. 100 μl of cell suspension (containing 0.2×10⁶ cells) were incubated in round-bottom 96-well plate for 30 min at 4° C. with increasing concentrations of the STEAP-1 TCB (31 pM-500 nM), washed twice with cold PBS containing 0.1% BSA (FACS buffer), re-incubated for further 30 min at 4° C. with the 1:50 pre-diluted FITC- or Alexa Fluor 647-conjugated AffiniPure F(ab′)2 Fragment goat-human IgG Fcg Fragment Specific secondary antibody (Jackson Immuno Research Lab, FITC #109-096-098, binding to Jurkats, or Jackson Immuno Research Lab, Alexa Fluor 647 #109-606-008, for binding to CHO-hSTEAP1, dilutions in FACS buffer) and washed twice with cold PBS 0.1% BSA. […] Staining was analyzed by FACS using a FACS Canto II (Software FACS Diva). […]
# T1 sequence (Q9UHE8 whole entry): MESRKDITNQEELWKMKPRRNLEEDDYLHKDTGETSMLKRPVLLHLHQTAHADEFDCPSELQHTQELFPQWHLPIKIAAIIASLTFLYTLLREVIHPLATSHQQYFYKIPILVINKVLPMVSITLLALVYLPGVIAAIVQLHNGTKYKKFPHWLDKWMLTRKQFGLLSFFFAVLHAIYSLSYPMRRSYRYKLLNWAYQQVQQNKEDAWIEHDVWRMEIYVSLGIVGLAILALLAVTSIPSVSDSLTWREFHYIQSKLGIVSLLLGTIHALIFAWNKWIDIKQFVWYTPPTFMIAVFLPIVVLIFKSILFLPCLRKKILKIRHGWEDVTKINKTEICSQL
# T2 sequence (P07766 23-207 limits assumed): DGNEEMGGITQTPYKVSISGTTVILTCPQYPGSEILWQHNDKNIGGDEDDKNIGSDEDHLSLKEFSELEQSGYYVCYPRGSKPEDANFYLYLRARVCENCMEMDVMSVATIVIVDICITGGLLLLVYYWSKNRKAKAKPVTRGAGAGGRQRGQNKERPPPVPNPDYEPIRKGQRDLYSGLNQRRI
binder,measurement,setting,value
B1,"EC50 [pM] 24 h, T-cell mediated killing of LnCAP cells (LDH release, human PBMCs, E:T 10:1)",[1],100 pM
same,"EC50 [pM] 24 h, T-cell mediated killing of MKN45 cells (LDH release, human PBMCs, E:T 10:1)",[1],1500 pM
B2,"EC50 [pM] 24 h, T-cell mediated lysis of LnCaP cells (LDH release)",[2],95.7 pM
same,"EC50 [pM] 48 h, T-cell mediated lysis of LnCaP cells (LDH release)",[2],22.9 pM
same,"EC50 [nM], activation of Jurkat-NFAT reporter cells (luminescence after 6 h) with LnCaP cells",[3],5.73 nM
B3,"EC50 (pM), activation of primary T cells with LnCaP cells, 48 h: % CD4 + CD25+",[4],7960 pM
same,"EC50 (pM), activation of primary T cells with LnCaP cells, 48 h: % CD4 + CD69+",[4],4310 pM
same,"EC50 (pM), activation of primary T cells with LnCaP cells, 48 h: % CD8 + CD25+",[4],5060 pM
same,"EC50 (pM), activation of primary T cells with LnCaP cells, 48 h: % CD8 + CD69+",[4],588 pM
same,"EC50 [nM], activation of Jurkat-NFAT reporter cells (luminescence after 6 h), presence of CHO-hSTEAP1",[5],0.51 nM
same,"EC50 [nM], activation of Jurkat-NFAT reporter cells (luminescence after 6 h), presence of LnCaP cells",[5],0.054 nM
same,"EC50 [pM] 24 h, STEAP-1 TCB-mediated lysis of LnCaP cells (LDH release)",[6],1860 pM
same,"EC50 [pM] 48 h, STEAP-1 TCB-mediated lysis of LnCaP cells (LDH release)",[6],1560 pM
same,"EC50 [nM], activation of Jurkat-NFAT reporter cells (luminescence after 6 h), presence of STEAP-1-negative CHO-K1",human CD3 [7],18.8 nM
same,"EC50 [nM], activation of Jurkat-NFAT reporter cells (luminescence after 6 h), presence of CHO-hSTEAP1",[8],0.79 nM
B4,binding result,human CD3 [9],binds
same,"EC50 (pM), activation of primary T cells with LnCaP cells, 48 h: % CD4 + CD25+",[4],447 pM
same,"EC50 (pM), activation of primary T cells with LnCaP cells, 48 h: % CD4 + CD69+",[4],300 pM
same,"EC50 (pM), activation of primary T cells with LnCaP cells, 48 h: % CD8 + CD25+",[4],271 pM
same,"EC50 (pM), activation of primary T cells with LnCaP cells, 48 h: % CD8 + CD69+",[4],124 pM
same,"EC50 [nM], activation of Jurkat-NFAT reporter cells (luminescence after 6 h), presence of CHO-hSTEAP1",[5],7.19 nM
same,"EC50 [nM], activation of Jurkat-NFAT reporter cells (luminescence after 6 h), presence of LnCaP cells",[5],1.36 nM
same,EC50,[10],20.2 nM
same,"EC50 [pM] 24 h, STEAP-1 TCB-mediated lysis of LnCaP cells (LDH release)",[6],13.7 pM
same,"EC50 [pM] 48 h, STEAP-1 TCB-mediated lysis of LnCaP cells (LDH release)",[6],6.35 pM
same,"EC50 [pM] 24 h, T-cell mediated lysis of LnCaP cells (LDH release)",[2],36.8 pM
same,"EC50 [pM] 48 h, T-cell mediated lysis of LnCaP cells (LDH release)",[2],31.4 pM
same,"EC50 [nM], activation of Jurkat-NFAT reporter cells (luminescence after 6 h) with LnCaP cells",[3],3.58 nM
same,"EC50 [nM], activation of Jurkat-NFAT reporter cells (luminescence after 6 h), presence of CHO-hSTEAP1",[8],0.1 nM
B5,"EC50 [pM] 24 h, T-cell mediated lysis of LnCaP cells (LDH release)",[2],152 pM
same,"EC50 [pM] 48 h, T-cell mediated lysis of LnCaP cells (LDH release)",[2],12.8 pM
same,"EC50 [nM], activation of Jurkat-NFAT reporter cells (luminescence after 6 h) with LnCaP cells",[3],39.5 nM
